Data published in patent publication US20220143024A1, “METHODS OF USING IMIPRIDONES” (Board of Regents, The University of Texas System, priority 2019, published 2022).

What was measured:
Assay in all cases: BioID-MS
GLS (human) = GLS (human) (UniProt O94925)
CARS2 (human) = CARS2 (human) (UniProt Q9HA77)
ERAL1 (human) = ERAL1 (human) (UniProt O75616)
ACN9 (human) = ACN9 (human) (UniProt Q9NRP4)
NDUFA7 (human) = NDUFA7 (human) (UniProt O95182)
LETM1 (human) = LETM1 (human) (UniProt O95202)
SUCLG2 (human) = SUCLG2 (human) (UniProt Q96I99)
DHRS4 (human) = DHRS4 (human) (UniProt Q9BTZ2)
SUPV3L1 (human) = SUPV3L1 (human) (UniProt Q8IYB8)
PPA2 (human) = PPA2 (human) (UniProt Q9H2U2)
GCDH (human) = GCDH (human) (UniProt Q92947)
MMAB (human) = MMAB (human) (UniProt Q96EY8)
PAM16 (human) = PAM16 (human) (UniProt Q9Y3D7)
OXA1L (human) = OXA1L (human) (UniProt Q15070)
MRPS15 (human) = MRPS15 (human) (UniProt P82914)
PCK2 (human) = PCK2 (human) (UniProt Q16822)
MTIF2 (human) = MTIF2 (human) (UniProt P46199)
HSD17B10 (human) = HSD17B10 (human) (UniProt Q99714)
BCKDHB (human) = BCKDHB (human) (UniProt P21953)
MTRF1 (human) = MTRF1 (human) (UniProt O75570)
CRAT (human) = CRAT (human) (UniProt P43155)
FMC1 (human) = FMC1 (human) (UniProt Q96HJ9)
MRPL40 (human) = MRPL40 (human) (UniProt Q9NQ50)
OXCT1 (human) = OXCT1 (human) (UniProt P55809)
NADKD1 (human) = NADKD1 (human) (UniProt Q4G0N4)
C7orf55 (human) = C7orf55 (human) (UniProt Q96HJ9)
PDPR (human) = PDPR (human) (UniProt Q8NCN5)
ATPAF2 (human) = ATPAF2 (human) (UniProt Q8N5M1)
HSDL2 (human) = HSDL2 (human) (UniProt Q6YN16)
MRPS24 (human) = MRPS24 (human) (UniProt Q96EL2)
TST (human) = TST (human) (UniProt Q16762)
ABHD10 (human) = ABHD10 (human) (UniProt Q9NUJ1)
TBRG4 (human) = TBRG4 (human) (UniProt Q969Z0)
NDUFS8 (human) = NDUFS8 (human) (UniProt O00217)
PIN1 (human) = PIN1 (human) (UniProt Q13526)
ACAT1 (human) = ACAT1 (human) (UniProt P24752)
NARS2 (human) = NARS2 (human) (UniProt Q96I59)
WARS2 (human) = WARS2 (human) (UniProt Q9UGM6)
MRPS36 (human) = MRPS36 (human) (UniProt P82909)
SDHAF3 (human) = SDHAF3 (human) (UniProt Q9NRP4)
POLRMT (human) = POLRMT (human) (UniProt O00411)
C8orf82 (human) = C8orf82 (human) (UniProt Q6P1X6)
MRPS17 (human) = MRPS17 (human) (UniProt Q9Y2R5)
BCKDHA (human) = BCKDHA (human) (UniProt P12694)
NDUFA2 (human) = NDUFA2 (human) (UniProt O43678)
NDUFS4 (human) = NDUFS4 (human) (UniProt O43181)
C20orf72 (human) = C20orf72 (human) (UniProt Q9BQP7)
ACAD10 (human) = ACAD10 (human) (UniProt Q6JQN1)
AARS2 (human) = AARS2 (human) (UniProt Q5JTZ9)
RNMTL1 (human) = RNMTL1 (human) (UniProt Q9HC36)
LYRM7 (human) = LYRM7 (human) (UniProt Q5U5X0)
ECSIT (human) = ECSIT (human) (UniProt Q9BQ95)
FASTKD5 (human) = FASTKD5 (human) (UniProt Q7L8L6)
NUDT19 (human) = NUDT19 (human) (UniProt A8MXV4)
MRPS16 (human) = MRPS16 (human) (UniProt Q9Y3D3)
DCAKD (human) = DCAKD (human) (UniProt Q8WVC6)
FOXRED1 (human) = FOXRED1 (human) (UniProt Q96CU9)
C2orf56 (human) = C2orf56 (human) (UniProt Q7L592)

- Log2 Fold change (vs control) (GLS (human)): 0.21 log2
- Log2 Fold change (vs control) (CARS2 (human)): -0.38 log2
- Log2 Fold change (vs control) (ERAL1 (human)): -1.33 log2
- Log2 Fold change (vs control) (ACN9 (human)): -2.14 log2
- Log2 Fold change (vs control) (NDUFA7 (human)): -2.22 log2
- Log2 Fold change (vs control) (LETM1 (human)): 1.06 log2
- Log2 Fold change (vs control) (SUCLG2 (human)): -0.49 log2
- Log2 Fold change (vs control) (DHRS4 (human)): 0.14 log2
- Log2 Fold change (vs control) (SUPV3L1 (human)): 0.56 log2
- Log2 Fold change (vs control) (PPA2 (human)): 0.02 log2
- Log2 Fold change (vs control) (GCDH (human)): 1 log2
- Log2 Fold change (vs control) (MMAB (human)): 0.11 log2
- Log2 Fold change (vs control) (PAM16 (human)): -0.42 log2
- Log2 Fold change (vs control) (OXA1L (human)): -1 log2
- Log2 Fold change (vs control) (MRPS15 (human)): -2.32 log2
- Log2 Fold change (vs control) (PCK2 (human)): -0.51 log2
- Log2 Fold change (vs control) (MTIF2 (human)): 0.3 log2
- Log2 Fold change (vs control) (HSD17B10 (human)): 0.72 log2
- Log2 Fold change (vs control) (BCKDHB (human)): 0.79 log2
- Log2 Fold change (vs control) (MTRF1 (human)): -1.44 log2
- Log2 Fold change (vs control) (CRAT (human)): -3 log2
- Log2 Fold change (vs control) (FMC1 (human)): 0.41 log2
- Log2 Fold change (vs control) (MRPL40 (human)): 0.37 log2
- Log2 Fold change (vs control) (OXCT1 (human)): -0.95 log2
- Log2 Fold change (vs control) (NADKD1 (human)): -1.04 log2
- Log2 Fold change (vs control) (C7orf55 (human)): -0.74 log2
- Log2 Fold change (vs control) (PDPR (human)): 0.09 log2
- Log2 Fold change (vs control) (ATPAF2 (human)): -0.91 log2
- Log2 Fold change (vs control) (HSDL2 (human)): 0.83 log2
- Log2 Fold change (vs control) (MRPS24 (human)): 1.12 log2
- Log2 Fold change (vs control) (TST (human)): -0.51 log2
- Log2 Fold change (vs control) (ABHD10 (human)): -0.16 log2
- Log2 Fold change (vs control) (TBRG4 (human)): 0.28 log2
- Log2 Fold change (vs control) (NDUFS8 (human)): 0.19 log2
- Log2 Fold change (vs control) (PIN1 (human)): -3.81 log2
- Log2 Fold change (vs control) (ACAT1 (human)): -0.01 log2
- Log2 Fold change (vs control) (NARS2 (human)): -0.14 log2
- Log2 Fold change (vs control) (WARS2 (human)): 0.25 log2
- Log2 Fold change (vs control) (MRPS36 (human)): 0.11 log2
- Log2 Fold change (vs control) (SDHAF3 (human)): -0.03 log2
- Log2 Fold change (vs control) (POLRMT (human)): 0.57 log2
- Log2 Fold change (vs control) (C8orf82 (human)): 1.6 log2
- Log2 Fold change (vs control) (MRPS17 (human)): -0.55 log2
- Log2 Fold change (vs control) (BCKDHA (human)): 1.68 log2
- Log2 Fold change (vs control) (NDUFA2 (human)): -0.23 log2
- Log2 Fold change (vs control) (NDUFS4 (human)): -0.57 log2
- Log2 Fold change (vs control) (C20orf72 (human)): 0.12 log2
- Log2 Fold change (vs control) (ACAD10 (human)): -4.09 log2
- Log2 Fold change (vs control) (AARS2 (human)): -0.14 log2
- Log2 Fold change (vs control) (RNMTL1 (human)): -0.2 log2
- Log2 Fold change (vs control) (LYRM7 (human)): 0.23 log2
- Log2 Fold change (vs control) (ECSIT (human)): -1.04 log2
- Log2 Fold change (vs control) (FASTKD5 (human)): 1.05 log2
- Log2 Fold change (vs control) (NUDT19 (human)): -0.58 log2
- Log2 Fold change (vs control) (MRPS16 (human)): 0.1 log2
- Log2 Fold change (vs control) (DCAKD (human)): -3.75 log2
- Log2 Fold change (vs control) (FOXRED1 (human)): -4.09 log2
- Log2 Fold change (vs control) (C2orf56 (human)): 0.19 log2
Substance: FlagBirA-ClpP (Y118A) (from UniProt P06709 1-321; Q16740 57-277) (enzyme)
